Experimental findings from the RNAGym collection of RNA variant scans (doi:10.1073/pnas.2313332121) are described below.

This sample holds only a part of the variants without activity.

To fix the notation:
B1: TPR 5TU (parent)
chain: GGAUCUUCUCGAUCUAACAAAAAAGACAAAUCUGCCACAAAGCUUGAGAGCAUCUUCGGAUGCAGAGGCGGCAGCCUUCGGUGGCGCGAUAGCGCCAACGUUCUCAACUAUGACACGCAAAACGCGUGCUCCGUUGAAUGGAGUUUAUCAUG

Variants of B1 are the subject of this data set. The data set is described as follows: polymerase ribozyme fitness, log enrichment relative to wild type (log ratio); higher = more active; in vitro selection for triplet polymerase activity. A digest of the protocol:
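Only genotypes with ≥10 input reads and ≥1 read per output were kept after Illumina sequencing of input and output libraries. These libraries were PCR-built, transcribed mutants of each subunit of a heterodimeric triplet polymerase ribozyme, each put through one triplicate in vitro selection round with frozen incubation at −7 °C, gel excision of extended constructs, streptavidin-bead capture and RT-PCR. Fitness is a logarithmic ratio of genotype enrichment to wild-type enrichment, from inverse-variance-weighted replicate averages, with the logarithm in base 2.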
Consider U33A G46U A107G, for which the “polymerase ribozyme fitness (log ratio)” value was -4.18.
As for C35U G59A C87U U144C, the figure is -1.17.
As to C36A U56A U77G C87U U102A A119C, the “polymerase ribozyme fitness (log ratio)” value is at most -4.2.
To U33G G58A G86A belongs -4.02; to C36A C43G, at most -4.2.
To C32U C54G C85A A119U G126A C149A belongs at most -4.2.
To C35U G58A A150G belongs -1.55.
On to C36A U55A C57G C76A, for which the “polymerase ribozyme fitness (log ratio)” value was -4.03.
Turning to C35U U45G G58A U61G C76U C85A C93G U104A A107C G152A, the “polymerase ribozyme fitness (log ratio)” value is at most -4.2.
Turning to C35U A41U C54U C76G C85A A98G, the “polymerase ribozyme fitness (log ratio)” value is at most -4.2.
As for C35U G65A G80U C95G G141C, the figure is -3.95; as for C32G U33G G92A C114U, -4.15.
For C32G C72G C87G C114U U139A, the “polymerase ribozyme fitness (log ratio)” value is at most -4.2.
To C35U A41G G94A A98U G152U belongs -3.4.
With U33C C87A, the “polymerase ribozyme fitness (log ratio)” value was -3.95.
As to C32U A60G, the “polymerase ribozyme fitness (log ratio)” value was -1.63.
To G34A U55G G88U C105A belongs at most -4.2; to U33G C38A A39U C76U C99U A150U, at most -4.2.
As for C32G G81A, the figure is -4.14.
C32A A37G C54A G86C C99A A113G C125U U135A: the “polymerase ribozyme fitness (log ratio)” value was at most -4.2.
With C35U A39U G50A C51U G83A C123U, the “polymerase ribozyme fitness (log ratio)” value was at most -4.2.
To C35A G68A C95G C132G belongs at most -4.2; to U33A G80C C99U C131U, at most -4.2; to C32G U53G A73C C131A A142G, at most -4.2.
To U33A A52G C85A C95A U148C U151A belongs at most -4.2; to G34U C76U C87U G124U, at most -4.2; to C35U U53A U135A G143C, -4.16.
For U33G A47G G81A, the “polymerase ribozyme fitness (log ratio)” value was -4.
Regarding U33A U55G A73G G83U G86U A89U G136A, the “polymerase ribozyme fitness (log ratio)” value was at most -4.2.
Take C32A A39G G50U U55A A73U C75A A138U: the “polymerase ribozyme fitness (log ratio)” value was at most -4.2.
To U33G A41U C51A G67C C72U belongs -3.95; to G34A U77A G88A, at most -4.2.
As for U33G C85U U139G, the figure is -3.72; as for C35U C85A C103U A119U, -2.38.
With U33A A120U, the “polymerase ribozyme fitness (log ratio)” value was -4.01.
To C35A C57A G83U G94C belongs at most -4.2; to C36A A89U C116A A120U, -4.18.
Regarding C36A A37C C43A U61A C85G, the “polymerase ribozyme fitness (log ratio)” value was at most -4.2.
Take C32A A49U C72A C85A U90G A98G A120C U151A: the “polymerase ribozyme fitness (log ratio)” value was at most -4.2.
On to C32A C69A U145C, for which the “polymerase ribozyme fitness (log ratio)” value is -3.25.
As for C35U A64G G81U G92A C93A A115U U134A U151G, the figure is at most -4.2; as for U33G C36U A60U C87U A91G C108A U109A, at most -4.2; as for U31G G46C C79U G117C U144C, at most -4.2.
With C36A A91U U145C, the “polymerase ribozyme fitness (log ratio)” value is at most -4.2.
As for C35A U56A U102G C105A G152A, the figure is at most -4.2; as for C35A A47C, -3.11.
To C35U G70A G83A C116G A120C U134A belongs at most -4.2.
Take G34A C85A: the “polymerase ribozyme fitness (log ratio)” value is -3.37.
For the variant G34A C36U A60C G71A G84A, the “polymerase ribozyme fitness (log ratio)” value was at most -4.2.
Regarding C35U C95U C96A, the “polymerase ribozyme fitness (log ratio)” value is -1.64.
As for C32U C116G, the figure is -2.9; as for C35U A37G U61A A64U C149G, at most -4.2.
To U33A C105U belongs -3.8; to C35A A98G, -3.17.
C35U C93U: the “polymerase ribozyme fitness (log ratio)” value is -1.74.
To C35A A60U U61G A64C U82C C85A A142C belongs at most -4.2; to C35U G58U C87U C114A A119C, -4; to C35U A106C U144A, -2.33.
As for G34U G84A C95U C114G, the figure is -4.02; as for C36A A64C G86C G133U, at most -4.2.
As for C32U C96G U130G, the “polymerase ribozyme fitness (log ratio)” value is -3.47.
To G34C G94C belongs -3.85; to G34U A47C G67A C79A G84C C95A C123G U135G, at most -4.2; to G34C G83A A91U U102C G112U A113U A142C, at most -4.2.
As for C32A G84A A89G A97G U134A U148A, the “polymerase ribozyme fitness (log ratio)” value is at most -4.2.
Regarding C35U G59C C76G G124U, the “polymerase ribozyme fitness (log ratio)” value is at most -4.2.
To C35U U144G belongs 1.13; to C35U U144A, -0.455; to C32G G48A G67U C85U C93G U145G, at most -4.2.
Take C35G U55A C85A A113C: the “polymerase ribozyme fitness (log ratio)” value is -3.96.
As for C35A G92A A107G, the “polymerase ribozyme fitness (log ratio)” value was at most -4.2.
As for C35U G83A C116A, the figure is -1.03.
As for U31G G68A C75G C105G C131G U139G, the figure is at most -4.2; as for C32G C72U, -4.2; as for C35U C85G, -2.73.
To U31G G46C A60U A73G C76G C79U G92A C93U C96G U135G belongs at most -4.2.
As to G34C G42A G86A U148C, the “polymerase ribozyme fitness (log ratio)” value was at most -4.2.
As for C36A U55A G92A C96G G126C U144C, the figure is at most -4.2; as for C32G C76A C99A, -4.15; as for C36A G50A A64U A66C A98U U104A U109G U148G, at most -4.2.
As for C35U C116U, the figure is 0.17; as for U33C C43G G50C G58A G86A C105A A137G, at most -4.2.
As to C32G G46U A47C G59A, the “polymerase ribozyme fitness (log ratio)” value was -4.03.
